± gives the uncertainty stated by the source.
Assay: protein stability index of a GFP-peptide fusion (yeast GPS) (PSI 1-4); higher = more stable; sorted into four equal gates, so the index is relative within each strain
In short: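 Tiled 17-residue peptides from yeast proteins were fused downstream of GFP on a plasmid that also expresses Cherry, and the pooled library was carried in yeast. Mid-log cultures grown in leucine-free medium were sorted into four equal gates by GFP/Cherry fluorescence ratio. Plasmids from each gate were PCR-amplified and Illumina-sequenced, and reads were assigned to strains by barcodes. Each peptide's protein stability index is the sum, over gates, of the gate's read frequency multiplied by its gate number.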

Sequence	protein stability index (doa10∆)	protein stability index (pdr5∆)	protein stability index (san1∆)	protein stability index (ubr1∆)
DSDELGGESMEGPKKCI [SNM1]	3.38 ± 0.086	3.51 ± 0.086	3.39 ± 0.076	3.4 ± 0.071
DSDKGSKLNELKKELKL [SMC2]	3.56 ± 0.18	3.02 ± 0.23	–	3.33 ± 0.17
DSENFSFEKLYEGMKLG [YMR129W/POM152]	3.5 ± 0.11	3.48 ± 0.15	3.42 ± 0.098	3.29 ± 0.074
DSFIFDGTAKEVGDEAD [MED4]	3.22 ± 0.062	3.31 ± 0.057	3.38 ± 0.05	3.11 ± 0.051
DSLISGVKQKITIQLTR [BRR2]	1.44 ± 0.12	1.74 ± 0.064	2.66 ± 0.083	1.63 ± 0.073
DSNESDDDVTPSTKVAS [YLR335W/NUP2]	3.46 ± 0.16	3.13 ± 0.15	3.26 ± 0.088	3.54 ± 0.12
DSSMTTVQENELLKSSL [AAR2]	2.79 ± 0.12	3.32 ± 0.1	3.12 ± 0.095	2.94 ± 0.13
DSSVEDSTDNENSGKEM [LIN1]	3.04 ± 0.041	3.24 ± 0.069	3.41 ± 0.081	2.99 ± 0.031
DSTPEEVSCKLLETITY [YML103C/NUP188]	2.47 ± 0.077	2.82 ± 0.086	2.47 ± 0.075	2.79 ± 0.092
DSTVNKSITLKGRNNES [YDL088C/ASM4]	3.28 ± 0.09	3.38 ± 0.084	3.23 ± 0.058	3.21 ± 0.079
DTFRAGAFDQLKQNAIR [SRP54]	2.82 ± 0.058	2.99 ± 0.056	3.09 ± 0.053	3.09 ± 0.076
DTFRWVGKKSAPEKDIW [RPO31]	2.79 ± 0.095	2.88 ± 0.11	2.9 ± 0.067	3.15 ± 0.061
DTISAITHQLNNKFANK [RPC25]	–	2.42 ± 0.16	–	–
DTKLRLEKSKNECQRLQ [YIL149C/MLP2]	2.57 ± 0.055	2.85 ± 0.059	2.54 ± 0.056	2.87 ± 0.04
DTLDGDLMDDMSDISDL [RPN3]	2.71 ± 0.18	2.69 ± 0.076	2.11 ± 0.13	2.14 ± 0.1
DTLDPALLRPGRLDRKV [RPT4]	3.02 ± 0.26	–	–	–
DTPTSGKHNLTIWCVCD [BRR2]	3.05 ± 0.11	3.22 ± 0.1	3.14 ± 0.075	3.08 ± 0.082
DTQFTKLLDDNPTEFDW [SRB8]	2.99 ± 0.089	3.04 ± 0.071	2.91 ± 0.058	2.91 ± 0.043
DTSLCINGEPSIHVNRV [RRI1]	2.99 ± 0.081	3.04 ± 0.073	2.99 ± 0.053	3.04 ± 0.05
DVDMEDRNLTEFDSTDT [RRI1]	2.93 ± 0.12	3.09 ± 0.12	2.71 ± 0.13	3.01 ± 0.055
DVEDDDKETQLKKRAVS [POP7]	2.85 ± 0.18	2.94 ± 0.096	2.41 ± 0.16	2.5 ± 0.21
DVLKVNTLVRPNGTKKA [RPL25]	2.75 ± 0.087	2.91 ± 0.08	2.89 ± 0.1	3.26 ± 0.067
DVTPISMFGSDQKTGRA [RPN4]	2.93 ± 0.069	3.11 ± 0.094	3.07 ± 0.066	2.95 ± 0.069
DYNKKQDRIQDVKLVLA [MED1]	2.69 ± 0.078	2.83 ± 0.074	2.28 ± 0.11	2.28 ± 0.072
DYTLQDIICEDSTLILE [RPB2]	2.83 ± 0.082	2.64 ± 0.078	2.11 ± 0.11	2.15 ± 0.072
EAEMAYVKAVSDKAQLN [SMC4]	2.62 ± 0.062	2.33 ± 0.052	2.2 ± 0.072	2.26 ± 0.05
EAIDGNGEIKGENIDAD [SNF2]	3.53 ± 0.14	3.4 ± 0.071	3.48 ± 0.078	3.25 ± 0.12

Sequence	protein stability index (doa10∆)	protein stability index (pdr5∆)	protein stability index (san1∆)	protein stability index (ubr1∆)
EAKKFEPTYRLVRYGLA [RPS24A]	2.83 ± 0.14	3.11 ± 0.095	2.79 ± 0.13	2.88 ± 0.049
EANFDLINIDTSIANAF [RPC40]	2.78 ± 0.049	3.27 ± 0.057	3 ± 0.05	3.07 ± 0.043
EASKKSAVKPRPLKLER [FAS1]	3.1 ± 0.15	3.16 ± 0.13	2.88 ± 0.17	3.05 ± 0.11
ECENEIKTKQMSLKKCQ [SMC2]	2.92 ± 0.25	3.28 ± 0.1	3.22 ± 0.076	3.32 ± 0.058
ECLQAYIFFGPIYYQKL [RET1]	2.54 ± 0.077	2.65 ± 0.071	2.24 ± 0.1	2.72 ± 0.05
ECPLDPGGYFIVNGTEK [RET1]	3.18 ± 0.12	3.34 ± 0.095	3.26 ± 0.088	3.29 ± 0.082
ECPVGEFLINEGTPINN [RPN14]	2.99 ± 0.1	2.39 ± 0.069	2.89 ± 0.11	2.31 ± 0.085
EDDDIRSRMLPTITLDD [SNF5]	2.46 ± 0.15	3.07 ± 0.18	–	3.44 ± 0.14
EDEDEDDETPSCEVEEI [SNU114]	3.05 ± 0.051	2.22 ± 0.05	2.99 ± 0.056	2.85 ± 0.044
EDEGEELTDEYLAENPD [PRP8]	3.43 ± 0.12	3.39 ± 0.13	3.33 ± 0.12	3.34 ± 0.092
EDETVKVAQLRQTGPAK [NSL1]	3.1 ± 0.16	2.83 ± 0.17	3.08 ± 0.19	3.67 ± 0.11
EDFAPLLAEEEELILPN [PRP8]	3.14 ± 0.17	3.38 ± 0.15	2.93 ± 0.066	2.78 ± 0.1
EDFMDIPKPRTAGKTSV [SNF2]	2.67 ± 0.14	3.24 ± 0.085	3.2 ± 0.18	3.08 ± 0.06
EDGRTLSDYNIQKESTL [RPS31]	2.92 ± 0.081	3.02 ± 0.066	3.05 ± 0.065	3.01 ± 0.09
EDILQGIFNLLNTLFNP [NUT1]	2.23 ± 0.052	2.35 ± 0.055	2.41 ± 0.078	2.3 ± 0.075
EDIVGALRRRVGPSEQN [REC8]	2.28 ± 0.074	1.58 ± 0.052	2.71 ± 0.12	2.43 ± 0.075
EDNEMLEDLFSYRNGMA [YJR042W/NUP85]	2.02 ± 0.082	1.89 ± 0.086	2.65 ± 0.089	1.95 ± 0.079
EDRPPEYWAQRKKKFVL [ISW2]	–	3.13 ± 0.19	–	–
EDVLVNQILMSVNFFVS [RPL1A]	1.91 ± 0.044	2.4 ± 0.045	2.08 ± 0.068	2.23 ± 0.035
EDVVAISSRTYGQRAVL [RPS0B]	3.28 ± 0.12	3.03 ± 0.06	3.01 ± 0.087	3.1 ± 0.049
EDYAIVTKGGTVENPLR [PRP28]	3.47 ± 0.16	2.98 ± 0.099	3.39 ± 0.055	3.44 ± 0.078
EEAAGTKMFEDRREKAE [SMC2]	3.4 ± 0.15	3.36 ± 0.18	3.26 ± 0.089	3.6 ± 0.11
EEAGEEEAKEEVTEEQA [RPS0A]	3.48 ± 0.12	3.5 ± 0.1	3.02 ± 0.13	3.64 ± 0.092
EEEATMTTSAVSPTVGK [YIL149C/MLP2]	3.25 ± 0.046	3.3 ± 0.037	3.229 ± 0.029	3.2 ± 0.035
EEESLHVFQYANRPRLV [RPC37]	1.36 ± 0.058	1.66 ± 0.081	1.79 ± 0.13	2.21 ± 0.047
EEFAYVDPARRQILFKY [MED6]	2.57 ± 0.085	2.19 ± 0.061	2.02 ± 0.09	2.06 ± 0.053
EEGEFIIDLYSLPEGLL [TAF14]	3.4 ± 0.088	3.54 ± 0.085	3.57 ± 0.058	3.52 ± 0.063

— the supplement of paper PMC9732359
